Assay results taken from the Human Domainome abundance scans (Beltran et al. 2025).
± gives the uncertainty stated by the source.

B1: Apoptosis-associated speck-like protein containing a CARD, residues 114 to 194; numbered along this chain, Q9ULZ3 (parent)
chain: FIDQHRAALIARVTNVEWLLDALYGKVLTDEQYQAVRAEPTNPSKMRKLFSFTPAWNWTCKDLLLQALRESQSYLVEDLER

Variants of: B1
Experiment: abundance fitness (aPCA) (normalised: wild type 0, dead -1); higher = more abundant; growth selection in yeast, the domain comes from the species named
Details: Homo sapiens

Going from P54V to P54L, the abundance fitness falls from -0.197 ± 0.054 to -0.328 ± 0.047.

Going from P54C to P54W, the abundance fitness rises from -0.254 ± 0.085 to -0.084 ± 0.068.

Compared with P54I, S51L is lower in abundance fitness: -0.189 ± 0.13 for the first, -0.938 ± 0.13 for the second.

S51D and S51E are within error of each other in abundance fitness: -0.169 ± 0.095 for the first, -0.012 ± 0.068 for the second.

Compared with S51A, S51F is lower in abundance fitness: -0.422 ± 0.063 for the first, -0.633 ± 0.14 for the second.

S51I and S51W are within error of each other in abundance fitness: -0.904 ± 0.32 for the first, -0.849 ± 0.15 for the second.

First: S51T
Second: S51P
The abundance fitness of the first is higher: -0.141 ± 0.056 for the first, -0.796 ± 0.06 for the second.

First: S51M
Second: R47A
The abundance fitness of the first is lower: -0.321 ± 0.11 for the first, 0.013 ± 0.055 for the second.

First: R47T
Second: R47I
The abundance fitness of the first is higher: -0.04 ± 0.076 for the first, -0.254 ± 0.11 for the second.

Going from R47H to N57T, the abundance fitness rises from -0.452 ± 0.12 to -0.106 ± 0.067.

N57C and N57E are within error of each other in abundance fitness: -0.269 ± 0.1 for the first, -0.32 ± 0.079 for the second.

N57V and R6Y are within error of each other in abundance fitness: -0.431 ± 0.053 for the first, -0.327 ± 0.14 for the second.

R6T and R6L are within error of each other in abundance fitness: -0.549 ± 0.13 for the first, -0.362 ± 0.061 for the second.

R6N and R6H are within error of each other in abundance fitness: -0.397 ± 0.16 for the first, -0.635 ± 0.23 for the second.

Compared with R6S, R6D is lower in abundance fitness: -0.385 ± 0.048 for the first, -0.724 ± 0.19 for the second.

Going from R12S to R12N, the abundance fitness rises from -0.462 ± 0.085 to -0.14 ± 0.16.

R12M and T41M are within error of each other in abundance fitness: -0.628 ± 0.11 for the first, -0.701 ± 0.13 for the second.

Compared with T41G, T41N is higher in abundance fitness: -0.484 ± 0.048 for the first, 0.045 ± 0.1 for the second.

First: L64F
Second: Q34T
The abundance fitness of the first is higher: 0.2 ± 0.11 for the first, -0.285 ± 0.11 for the second.

Q34S and Q34D are within error of each other in abundance fitness: -0.388 ± 0.08 for the first, -0.185 ± 0.21 for the second.

Compared with Q34V, Q34I is lower in abundance fitness: -0.417 ± 0.059 for the first, -0.81 ± 0.29 for the second.

Compared with D21N, D21W is lower in abundance fitness: -0.264 ± 0.086 for the first, -0.496 ± 0.084 for the second.

Compared with D21C, D21Y is lower in abundance fitness: -0.466 ± 0.13 for the first, -0.805 ± 0.11 for the second.

D21L and D21F are within error of each other in abundance fitness: -0.695 ± 0.091 for the first, -0.801 ± 0.31 for the second.

V13D and V13N are within error of each other in abundance fitness: -0.688 ± 0.14 for the first, -0.861 ± 0.25 for the second.

V13R and V13K are within error of each other in abundance fitness: -0.851 ± 0.085 for the first, -0.899 ± 0.2 for the second.

First: V13G
Second: V13A
The abundance fitness of the first is lower: -0.598 ± 0.042 for the first, -0.039 ± 0.061 for the second.

First: Y24L
Second: Y24P
The abundance fitness of the first is higher: -0.035 ± 0.047 for the first, -0.598 ± 0.062 for the second.

Going from Y24G to Y24K, the abundance fitness rises from -0.483 ± 0.062 to 0.255 ± 0.061.

Going from E77I to E77Q, the abundance fitness rises from -0.479 ± 0.18 to -0.124 ± 0.057.

E77H and E77C are within error of each other in abundance fitness: -0.365 ± 0.19 for the first, -0.616 ± 0.18 for the second.

Compared with E77W, W58P is higher in abundance fitness: -0.399 ± 0.092 for the first, 0.145 ± 0.06 for the second.

W58H and W58F are within error of each other in abundance fitness: 0.289 ± 0.12 for the first, 0.105 ± 0.11 for the second.

W58K and W58G are within error of each other in abundance fitness: 0.19 ± 0.083 for the first, 0.205 ± 0.037 for the second.

First: W58R
Second: W58E
The abundance fitness of the first is lower: 0.234 ± 0.037 for the first, 0.376 ± 0.07 for the second.

Going from W58D to Y33L, the abundance fitness falls from 0.453 ± 0.12 to -0.204 ± 0.057.

Compared with Y33I, Y33E is lower in abundance fitness: -0.097 ± 0.14 for the first, -0.59 ± 0.12 for the second.

Y33F and Y33T are within error of each other in abundance fitness: -0.277 ± 0.11 for the first, -0.188 ± 0.086 for the second.

Compared with Y33P, L63Q is higher in abundance fitness: -0.654 ± 0.13 for the first, -0.243 ± 0.098 for the second.

Going from L63G to L63M, the abundance fitness rises from -0.862 ± 0.082 to 0.056 ± 0.095.

L63N and L63P are within error of each other in abundance fitness: -0.556 ± 0.27 for the first, -0.438 ± 0.075 for the second.

Going from D62E to D62S, the abundance fitness falls from 0.047 ± 0.059 to -0.168 ± 0.055.

First: D62V
Second: D62N
The abundance fitness of the first is lower: -0.646 ± 0.086 for the first, -0.207 ± 0.16 for the second.

First: D62P
Second: D62C
The abundance fitness of the first is lower: -0.768 ± 0.11 for the first, -0.265 ± 0.23 for the second.

First: D62R
Second: N15A
The abundance fitness of the first is higher: -0.2 ± 0.071 for the first, -0.718 ± 0.077 for the second.

Going from N15E to N15G, the abundance fitness falls from -0.188 ± 0.064 to -0.604 ± 0.058.

First: N15T
Second: N15L
The abundance fitness of the first is higher: -0.518 ± 0.099 for the first, -0.796 ± 0.15 for the second.

N15I and M46E are within error of each other in abundance fitness: -0.857 ± 0.25 for the first, -0.831 ± 0.16 for the second.

M46F and M46T are within error of each other in abundance fitness: -0.807 ± 0.15 for the first, -0.77 ± 0.14 for the second.

M46G and M46S are within error of each other in abundance fitness: -0.949 ± 0.089 for the first, -0.933 ± 0.13 for the second.

M46A and M46Y are within error of each other in abundance fitness: -0.679 ± 0.056 for the first, -0.707 ± 0.13 for the second.

Compared with M46R, A55G is higher in abundance fitness: -0.653 ± 0.068 for the first, 0.082 ± 0.049 for the second.

A55K and A55Y are within error of each other in abundance fitness: 0.016 ± 0.16 for the first, -0.077 ± 0.21 for the second.

A55V and I10T are within error of each other in abundance fitness: -0.416 ± 0.082 for the first, -0.515 ± 0.092 for the second.

I10W and I10N are within error of each other in abundance fitness: -0.793 ± 0.11 for the first, -0.745 ± 0.29 for the second.

I10A and I10P are within error of each other in abundance fitness: -0.714 ± 0.097 for the first, -0.985 ± 0.25 for the second.

Compared with A7H, A7E is higher in abundance fitness: -0.149 ± 0.11 for the first, 0.295 ± 0.069 for the second.

A7D and A7N are within error of each other in abundance fitness: 0.065 ± 0.1 for the first, 0.002 ± 0.13 for the second.

A7Y and A7L are within error of each other in abundance fitness: -0.54 ± 0.36 for the first, -0.461 ± 0.068 for the second.

Compared with F50Y, F50C is lower in abundance fitness: 0.015 ± 0.26 for the first, -0.937 ± 0.17 for the second.

F50I and F50V are within error of each other in abundance fitness: -0.418 ± 0.13 for the first, -0.536 ± 0.073 for the second.

First: A22C
Second: A22V
The abundance fitness of the first is higher: -0.127 ± 0.092 for the first, -0.476 ± 0.074 for the second.

A22S and A22M are within error of each other in abundance fitness: -0.057 ± 0.07 for the first, -0.183 ± 0.069 for the second.

First: T59P
Second: T59R
The abundance fitness of the first is lower: -0.44 ± 0.071 for the first, 0.111 ± 0.042 for the second.

First: T59L
Second: E31Y
The abundance fitness of the first is higher: -0.149 ± 0.053 for the first, -0.477 ± 0.081 for the second.

E31Q and E31K are within error of each other in abundance fitness: -0.38 ± 0.12 for the first, -0.65 ± 0.21 for the second.

T14W and T14F are within error of each other in abundance fitness: -0.864 ± 0.16 for the first, -0.749 ± 0.17 for the second.

First: S73Q
Second: S73V
The abundance fitness of the first is higher: -0.016 ± 0.11 for the first, -0.517 ± 0.077 for the second.

Going from S73Y to S73F, the abundance fitness falls from -0.167 ± 0.086 to -0.551 ± 0.12.

S73M and D30W are within error of each other in abundance fitness: -0.266 ± 0.095 for the first, -0.26 ± 0.074 for the second.

D30S and D30T are within error of each other in abundance fitness: -0.249 ± 0.058 for the first, -0.193 ± 0.13 for the second.

First: D30Y
Second: D30C
The abundance fitness of the first is higher: -0.293 ± 0.11 for the first, -0.539 ± 0.13 for the second.

Going from D30H to D30Q, the abundance fitness falls from 0.094 ± 0.14 to -0.199 ± 0.11.

E80M and E80Q are within error of each other in abundance fitness: -0.325 ± 0.14 for the first, -0.115 ± 0.084 for the second.

L75W and L75K are within error of each other in abundance fitness: -0.868 ± 0.12 for the first, -0.944 ± 0.39 for the second.

L75H and L9W are within error of each other in abundance fitness: -0.611 ± 0.23 for the first, -0.811 ± 0.11 for the second.

Going from L9C to L9V, the abundance fitness falls from -0.558 ± 0.075 to -0.989 ± 0.13.

First: L9D
Second: L65H
The abundance fitness of the first is lower: -0.798 ± 0.25 for the first, -0.143 ± 0.099 for the second.

L65W and L65A are within error of each other in abundance fitness: -0.172 ± 0.066 for the first, -0.074 ± 0.06 for the second.

L65R and L65I are within error of each other in abundance fitness: -0.361 ± 0.068 for the first, -0.338 ± 0.099 for the second.

First: L65F
Second: V27T
The abundance fitness of the first is higher: -0.024 ± 0.073 for the first, -0.675 ± 0.1 for the second.

V27D and V27M are within error of each other in abundance fitness: -0.904 ± 0.14 for the first, -0.722 ± 0.18 for the second.

First: V27I
Second: A35W
The abundance fitness of the first is higher: -0.392 ± 0.12 for the first, -0.957 ± 0.17 for the second.

Work on A35E yielded an abundance fitness of -0.064 ± 0.061.
